Test results taken from publication PMC2954053.

Legend:
TRAP150 = TRAP150 (UniProt Q9Y2W1); assay: anti-Flag co-IP, TRAP150 blot; conditions: reference: wild type Flag-PSF; sites T687
BTF = BTF (UniProt Q9NYF8); assay: anti-Flag co-IP, BTF blot; conditions: reference: wild type Flag-PSF; sites T687

binding against the reference (TRAP150): weaker | binding against the reference (BTF): weaker
Substance: PSF (from UniProt P23246) T687A
